In US20240158497A1 (published 2024):

T1: human gp130 expressed endogenously on IMR-32/Stat3-luc cells (human, UniProt P40189 23-918)
T1 sequence: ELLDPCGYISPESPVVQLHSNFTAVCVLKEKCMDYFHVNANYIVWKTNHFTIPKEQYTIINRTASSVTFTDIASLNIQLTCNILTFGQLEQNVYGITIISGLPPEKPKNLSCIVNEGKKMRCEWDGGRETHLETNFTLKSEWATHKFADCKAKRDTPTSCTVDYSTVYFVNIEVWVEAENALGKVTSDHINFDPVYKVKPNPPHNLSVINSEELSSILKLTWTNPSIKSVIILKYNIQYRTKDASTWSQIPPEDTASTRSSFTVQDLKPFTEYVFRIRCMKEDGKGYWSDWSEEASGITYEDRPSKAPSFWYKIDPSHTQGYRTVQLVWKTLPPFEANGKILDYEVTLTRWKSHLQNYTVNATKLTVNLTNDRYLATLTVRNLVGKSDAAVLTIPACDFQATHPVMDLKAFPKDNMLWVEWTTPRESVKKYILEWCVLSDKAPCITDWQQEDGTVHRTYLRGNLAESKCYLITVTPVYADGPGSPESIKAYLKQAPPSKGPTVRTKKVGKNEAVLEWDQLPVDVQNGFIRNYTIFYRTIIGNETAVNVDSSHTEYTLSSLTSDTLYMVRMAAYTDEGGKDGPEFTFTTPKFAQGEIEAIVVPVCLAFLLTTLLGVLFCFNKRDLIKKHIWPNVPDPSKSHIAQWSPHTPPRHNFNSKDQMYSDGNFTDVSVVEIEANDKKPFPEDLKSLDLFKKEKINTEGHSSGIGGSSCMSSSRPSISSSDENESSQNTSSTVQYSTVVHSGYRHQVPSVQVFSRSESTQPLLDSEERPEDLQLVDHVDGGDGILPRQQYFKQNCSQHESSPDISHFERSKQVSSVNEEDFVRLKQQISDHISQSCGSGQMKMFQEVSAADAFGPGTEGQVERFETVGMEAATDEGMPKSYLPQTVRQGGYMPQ


Assays:
[1] = molecular target: T1, human gp130 expressed endogenously on …; assay: cell-based or functional assay
[2] = molecular target: T1, human gp130 expressed endogenously on …; assay: FACS, 10 nM Ab pre-bound to 1 uM hGP130.mmh, IMR-32/Stat3-luc cells
From the text: In order to assess cell binding by anti-GP130 antibodies of the invention two cell lines were generated. One cell line generated was HEK293 cells stably over-expressing full length (FL) human gp130 (amino acids 1-918 of accession #P40189 with leucine at position 2 changed to valine, a natural variant) along with a luciferase reporter (Stat3-luciferase, Stat3-luc, SA Bioscience, #CLS-6028L). The cells were sorted twice using flow cytometry for high expression of gp130. It is known hereafter as HEK293/Stat3-luc/gp130-2 X Sort. IMR-32 cells (human Neuroblastoma, ATCC), were also evaluated for cell binding as these cells express gp130 endogenously and were used for bioassays. The cells used for binding were generated to stably express a luciferase reporter (Stat3-luciferase, Stat3-luc, SA Bioscience, #CLS-6028L), and are referred to hereafter as IMR-32/STAT3-Luc cells.
For the FACS analysis, 10 nM of the antibodies were used to stain 0.5×10⁶ cells/well of each cell type at 4° C. in PBS (without calcium and magnesium) containing 2% FBS for 30 minutes. IMR-32/STAT3-luc cells were incubated with 1 mg/mL mouse IgG for 30 minutes at 4° C. to block Fc receptors prior to adding the antibodies. To test whether the anti-gp130 antibody binding is specific for gp130 on the IMR-32 cells, antibodies were added to IMR-32/Stat3-luc cells with or without being pre-bound to 1000 nM of recombinant protein of the ecto-domain of human gp130 fused to myc-myc-his tag (hgp130.mmh) for 30 minutes at 25° C. […] Cells were fixed using BD CytoFix™ (Becton Dickinson, #554655) and analyzed on an IQue® (Intellicyt®) Flow Cytometer. Unstained and secondary antibody alone controls were also tested for all cell lines. The results were analyzed using ForeCyt® (IntelliCyt®) software to determine the geometric means of fluorescence for viable cells.

Binder	% inhibition; CNTF (20 pM) [1] [%]	% inhibition; LIF (20 pM) [1] [%]	% inhibition; OSM (100 pM) [1] [%]	IC50 [M]; CNTF (20 pM) [1] [M]	IC50 [M]; LIF (20 pM) [1] [M]	IC50 [M]; OSM (100 pM) [1] [M]	MFI - Normalized to Unstained Control [2] [ratio]
MAb16673 (antibody, V domains shown, hIgG4 isotype control used) VH: EVQLVQSGAEVKKPGESLKISCKGSGYSFTSYWIDWVRQMPGKGLEWMGIIYPDDSDTRYSPSFQGQVTMSVDKSISTAYLQWSSLKASDTAIYYCARHERGIVEAGTDYYYYYGMDVWGQGTTVTVSS VL: not shown	46	52	62	> 1e-07	9e-09	> 5e-08	7
MAb16666 (antibody, V domains shown, hIgG4 isotype control used) VH: EVQLVESGGGLVQSGGSLRLSCAASGFTFSRYEMNWVRQAPGKGLEWVAYISNTGTTRDYSDSVKGRFTISRDNAKNSLYLQMSSLRVEDTAVYYCVREKFSGTSDWFDPWGQGTLVTVSS VL: not shown	95	–	–	7.1e-10	–	–	8
